Results as given in patent US20230002480A1.

How the values were obtained:
Experiment in all cases: cell-based or functional assay
[1] = target: HIV-1 Env of pseudovirus P0402_c2_11 (HIV-1)
[2] = target: HIV-1 Env of pseudovirus Q842.d12 (HIV-1)
[3] = target: HIV-1 Env of pseudovirus WEAU_d15_410_787 (HIV-1)
[4] = target: HIV-1 Env of pseudovirus 0260.v5.c36 (HIV-1)
[5] = target: HIV-1 Env of pseudovirus 1054_07_TC4_1499 (HIV-1)
[6] = target: HIV-1 Env of pseudovirus BF1266.431a (HIV-1)
[7] = target: HIV-1 Env of pseudovirus CAP210.2.00.E8 (HIV-1)
[8] = target: HIV-1 Env of pseudovirus BJOX025000.01.1 (HIV-1)
[9] = target: HIV-1 Env of pseudovirus CAP45.2.00.G3 (HIV-1)
[10] = target: HIV-1 Env of pseudovirus 6535.3 (HIV-1)
[11] = target: HIV-1 Env of pseudovirus CNE58 (HIV-1)
[12] = target: HIV-1 Env of pseudovirus TRO.11 (HIV-1)
[13] = target: HIV-1 Env of pseudovirus Q461.e2 (HIV-1)
[14] = target: HIV-1 Env of pseudovirus Ce1086_B2 (HIV-1)
[15] = target: HIV-1 Env of pseudovirus 6244_13_B5_4576 (HIV-1)
[16] = target: HIV-1 Env of pseudovirus CNE52 (HIV-1)
[17] = target: HIV-1 Env of pseudovirus ZM135M.PL10a (HIV-1)
[18] = target: HIV-1 Env of pseudovirus BJOX015000.11.5 (HIV-1)
[19] = target: HIV-1 Env of pseudovirus 62357_14_D3_4589 (HIV-1)
[20] = target: HIV-1 Env of pseudovirus ZM247v1(Rev-) (HIV-1)
[21] = target: HIV-1 Env of pseudovirus T255-34 (HIV-1)
[22] = target: HIV-1 Env of pseudovirus CNE8 (HIV-1)
[23] = target: HIV-1 Env of pseudovirus CNE20 (HIV-1)
[24] = target: HIV-1 Env of pseudovirus HIV-16845-2.22 (HIV-1)
[25] = target: HIV-1 Env of pseudovirus 249M B10 (HIV-1)
[26] = target: HIV-1 Env of pseudovirus Du172.17 (HIV-1)
[27] = target: HIV-1 Env of pseudovirus CNE30 (HIV-1)
[28] = target: HIV-1 Env of pseudovirus AC10.0.29 (HIV-1)
[29] = target: HIV-1 Env of pseudovirus CNE53 (HIV-1)
[30] = target: HIV-1 Env of pseudovirus C4118.c09 (HIV-1)
[31] = target: HIV-1 Env of pseudovirus CNE19 (HIV-1)
[32] = target: HIV-1 Env of pseudovirus CNE17 (HIV-1)

## N49P7 (antibody)
[1]
  neutralization IC50: 0.014 µg/mL
  neutralization IC80: 0.061 µg/mL
  neutralization MPI: 100
[2]
  neutralization IC50: 0.021 µg/mL
  neutralization IC80: 0.06 µg/mL
  neutralization MPI: 100
[3]
  neutralization IC50: 0.045 µg/mL
  neutralization IC80: 0.117 µg/mL
  neutralization MPI: 100
[4]
  neutralization IC50: 0.354 µg/mL
  neutralization IC80: 0.884 µg/mL
  neutralization MPI: 100
[5]
  neutralization IC50: 0.494 µg/mL
  neutralization IC80: 2.31 µg/mL
  neutralization MPI: 100
[6]
  neutralization IC50: 0.057 µg/mL
  neutralization IC80: 0.199 µg/mL
  neutralization MPI: 100
[7]
  neutralization IC50: 1.82 µg/mL
  neutralization IC80: 6.49 µg/mL
  neutralization MPI: 100
[8]
  neutralization IC50: 0.038 µg/mL
  neutralization IC80: 0.236 µg/mL
  neutralization MPI: 100
[9]
  neutralization IC50: 0.06 µg/mL
  neutralization IC80: 0.29 µg/mL
  neutralization MPI: 100
[10]
  neutralization IC50: 0.186 µg/mL
  neutralization IC80: 0.598 µg/mL
  neutralization MPI: 100
[11]
  neutralization IC50: 0.029 µg/mL
  neutralization IC80: 0.067 µg/mL
  neutralization MPI: 100
[12]
  neutralization IC50: 0.044 µg/mL
  neutralization IC80: 0.16 µg/mL
  neutralization MPI: 100
[13]
  neutralization IC50: 0.261 µg/mL
  neutralization IC80: 0.922 µg/mL
  neutralization MPI: 100
[14]
  neutralization IC50: 0.089 µg/mL
  neutralization IC80: 0.568 µg/mL
  neutralization MPI: 100
[15]
  neutralization IC50: 0.111 µg/mL
  neutralization IC80: 0.386 µg/mL
  neutralization MPI: 100
[16]
  neutralization IC50: 0.008 µg/mL
  neutralization IC80: 0.023 µg/mL
  neutralization MPI: 100
[17]
  neutralization IC50: 0.2 µg/mL
  neutralization IC80: 0.96 µg/mL
  neutralization MPI: 100
[18]
  neutralization IC50: 0.036 µg/mL
  neutralization IC80: 0.157 µg/mL
  neutralization MPI: 100
[19]
  neutralization IC50: 0.025 µg/mL
  neutralization IC80: 0.102 µg/mL
  neutralization MPI: 100
[20]
  neutralization IC50: 0.062 µg/mL
  neutralization IC80: 0.214 µg/mL
  neutralization MPI: 100
[21]
  neutralization IC50: 0.053 µg/mL
  neutralization IC80: 0.262 µg/mL
  neutralization MPI: 100
[22]
  neutralization IC50: 0.037 µg/mL
  neutralization IC80: 0.125 µg/mL
  neutralization MPI: 100
[23]
  neutralization IC50: 0.028 µg/mL
  neutralization IC80: 0.1 µg/mL
  neutralization MPI: 100
[24]
  neutralization IC50: 0.95 µg/mL
  neutralization IC80: 3.94 µg/mL
  neutralization MPI: 100
[25]
  neutralization IC50: 0.081 µg/mL
  neutralization IC80: 0.377 µg/mL
  neutralization MPI: 100
[26]
  neutralization IC50: 0.102 µg/mL
  neutralization IC80: 0.668 µg/mL
  neutralization MPI: 100
[27]
  neutralization IC50: 0.18 µg/mL
  neutralization IC80: 0.609 µg/mL
  neutralization MPI: 100
[28]
  neutralization IC50: 5.03 µg/mL
  neutralization IC80: 36.7 µg/mL
  neutralization MPI: 89
[29]
  neutralization IC50: 0.035 µg/mL
  neutralization IC80: 0.124 µg/mL
  neutralization MPI: 100
[30]
  neutralization IC50: 0.043 µg/mL
  neutralization IC80: 0.147 µg/mL
  neutralization MPI: 100
[31]
  neutralization IC50: 0.009 µg/mL
  neutralization IC80: 0.041 µg/mL
  neutralization MPI: 100
[32]
  neutralization IC50: 0.126 µg/mL
  neutralization IC80: 0.46 µg/mL
  neutralization MPI: 100

## N49P7.1 (antibody)
[1]
  neutralization IC50: 0.029 µg/mL
  neutralization IC80: 0.115 µg/mL
  neutralization MPI: 100
[2]
  neutralization IC50: 0.028 µg/mL
  neutralization IC80: 0.08 µg/mL
  neutralization MPI: 100
[3]
  neutralization IC50: 0.058 µg/mL
  neutralization IC80: 0.142 µg/mL
  neutralization MPI: 100
[4]
  neutralization IC50: 0.497 µg/mL
  neutralization IC80: 1.51 µg/mL
  neutralization MPI: 100
[5]
  neutralization IC50: 0.627 µg/mL
  neutralization IC80: 2.98 µg/mL
  neutralization MPI: 100
[6]
  neutralization IC50: 0.033 µg/mL
  neutralization IC80: 0.11 µg/mL
  neutralization MPI: 100
[7]
  neutralization IC50: 2.03 µg/mL
  neutralization IC80: 7.3 µg/mL
  neutralization MPI: 99
[8]
  neutralization IC50: 0.057 µg/mL
  neutralization IC80: 0.378 µg/mL
  neutralization MPI: 100
[9]
  neutralization IC50: 0.086 µg/mL
  neutralization IC80: 0.567 µg/mL
  neutralization MPI: 100
[10]
  neutralization IC50: 0.224 µg/mL
  neutralization IC80: 0.715 µg/mL
  neutralization MPI: 100
[11]
  neutralization IC50: 0.049 µg/mL
  neutralization IC80: 0.107 µg/mL
  neutralization MPI: 100
[12]
  neutralization IC50: 0.055 µg/mL
  neutralization IC80: 0.191 µg/mL
  neutralization MPI: 100
[13]
  neutralization IC50: 0.329 µg/mL
  neutralization IC80: 1.14 µg/mL
  neutralization MPI: 100
[14]
  neutralization IC50: 0.121 µg/mL
  neutralization IC80: 0.742 µg/mL
  neutralization MPI: 99
[15]
  neutralization IC50: 0.184 µg/mL
  neutralization IC80: 0.493 µg/mL
  neutralization MPI: 100
[16]
  neutralization IC50: 0.021 µg/mL
  neutralization IC80: 0.058 µg/mL
  neutralization MPI: 100
[17]
  neutralization IC50: 0.314 µg/mL
  neutralization IC80: 1.11 µg/mL
  neutralization MPI: 99
[18]
  neutralization IC50: 0.111 µg/mL
  neutralization IC80: 0.487 µg/mL
  neutralization MPI: 100
[19]
  neutralization IC50: 0.028 µg/mL
  neutralization IC80: 0.15 µg/mL
  neutralization MPI: 100
[20]
  neutralization IC50: 0.038 µg/mL
  neutralization IC80: 0.176 µg/mL
  neutralization MPI: 100
[21]
  neutralization IC50: 0.094 µg/mL
  neutralization IC80: 0.447 µg/mL
  neutralization MPI: 100
[22]
  neutralization IC50: 0.048 µg/mL
  neutralization IC80: 0.167 µg/mL
  neutralization MPI: 100
[23]
  neutralization IC50: 0.079 µg/mL
  neutralization IC80: 0.224 µg/mL
  neutralization MPI: 100
[24]
  neutralization IC50: 1.07 µg/mL
  neutralization IC80: 5.4 µg/mL
  neutralization MPI: 100
[25]
  neutralization IC50: 0.053 µg/mL
  neutralization IC80: 0.225 µg/mL
  neutralization MPI: 100
[26]
  neutralization IC50: 0.185 µg/mL
  neutralization IC80: 0.748 µg/mL
  neutralization MPI: 100
[27]
  neutralization IC50: 0.307 µg/mL
  neutralization IC80: 1.01 µg/mL
  neutralization MPI: 100
[28]
  neutralization IC50: 5.31 µg/mL
  neutralization IC80: 46.8 µg/mL
  neutralization MPI: 85
[29]
  neutralization IC50: 0.066 µg/mL
  neutralization IC80: 0.228 µg/mL
  neutralization MPI: 100
[30]
  neutralization IC50: 0.048 µg/mL
  neutralization IC80: 0.216 µg/mL
  neutralization MPI: 100
[31]
  neutralization IC50: 0.027 µg/mL
  neutralization IC80: 0.128 µg/mL
  neutralization MPI: 100
[32]
  neutralization IC50: 0.254 µg/mL
  neutralization IC80: 0.86 µg/mL
  neutralization MPI: 100
